The target of data set [1] is T1, SS_01 (engineered Phi29 DNA polymerase) (bacteriophage Phi29 (engineered; …, UniProt P03680 1-575, M97K;A484E;K512Y).
T1 sequence: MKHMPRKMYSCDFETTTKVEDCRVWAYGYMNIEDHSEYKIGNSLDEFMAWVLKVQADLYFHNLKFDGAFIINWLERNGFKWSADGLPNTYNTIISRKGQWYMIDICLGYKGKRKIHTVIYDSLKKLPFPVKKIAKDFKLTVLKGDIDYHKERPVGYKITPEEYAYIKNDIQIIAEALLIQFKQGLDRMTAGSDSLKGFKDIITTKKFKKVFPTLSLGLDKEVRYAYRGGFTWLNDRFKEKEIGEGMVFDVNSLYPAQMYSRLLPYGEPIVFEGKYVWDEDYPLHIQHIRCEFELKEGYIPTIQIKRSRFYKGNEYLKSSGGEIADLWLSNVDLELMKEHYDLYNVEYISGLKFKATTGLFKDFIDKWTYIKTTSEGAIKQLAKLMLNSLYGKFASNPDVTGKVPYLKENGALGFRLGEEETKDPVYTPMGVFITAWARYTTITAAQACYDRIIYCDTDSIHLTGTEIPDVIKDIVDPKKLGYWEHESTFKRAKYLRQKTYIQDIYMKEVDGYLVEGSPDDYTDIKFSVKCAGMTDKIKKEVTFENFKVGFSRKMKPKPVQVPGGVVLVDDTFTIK
Description: ITC; Ca2+; exothermic, smaller heat than Mg2+; ITC: 1x PBS pH 7.5, 0.01% BSA, 0.05% Tween-20, with no metal, 1 mM MgCl2 or 1 mM CaCl2, 25 C, 5 uM SS_01; EMSA: 20 mM HEPES pH 7.5, 4 mM DTT, 1 mM metal chloride, 30 C 30 min, 100 nM DNA, 10 nM polymerase. The following applies: protein: recombinant; single strand.

Data set [2] addresses T1, SS_01 (engineered Phi29 DNA polymerase). Kind of data set: ITC; 1 mM Ca2+; ITC: 1x PBS pH 7.5, 0.01% BSA, 0.05% Tween-20, with no metal, 1 mM MgCl2 or 1 mM CaCl2, 25 C, 5 uM SS_01; EMSA: 20 mM HEPES pH 7.5, 4 mM DTT, 1 mM metal chloride, 30 C 30 min, 100 nM DNA, 10 nM polymerase. Particulars: protein: recombinant; 63 bp duplex, 5' overhang 7 nt on the 70-mer template.
The target is the same in data set [3]. Description: ITC; 1 mM Mg2+ (Mg2+/Ca2+ comparison set); ITC: 1x PBS pH 7.5, 0.01% BSA, 0.05% Tween-20, with no metal, 1 mM MgCl2 or 1 mM CaCl2, 25 C, 5 uM SS_01; EMSA: 20 mM HEPES pH 7.5, 4 mM DTT, 1 mM metal chloride, 30 C 30 min, 100 nM DNA, 10 nM polymerase. The following applies: protein: recombinant; 63 bp duplex, 5' overhang 7 nt on the 70-mer template.

For data set [4] the target is unchanged. Kind of data set: ITC; 1 mM Mg2+; 10 uM DNA into 5 uM protein; ITC: 1x PBS pH 7.5, 0.01% BSA, 0.05% Tween-20, with no metal, 1 mM MgCl2 or 1 mM CaCl2, 25 C, 5 uM SS_01; EMSA: 20 mM HEPES pH 7.5, 4 mM DTT, 1 mM metal chloride, 30 C 30 min, 100 nM DNA, 10 nM polymerase. The following applies: protein: recombinant; 63 bp duplex, 5' overhang 7 nt on the 70-mer template. (In general: ITC needs no label: the signal is the heat of the interaction.)

For data set [5] the target is unchanged. Description: ITC; no Mg2+; 10 uM DNA into 5 uM protein; ITC: 1x PBS pH 7.5, 0.01% BSA, 0.05% Tween-20, with no metal, 1 mM MgCl2 or 1 mM CaCl2, 25 C, 5 uM SS_01; EMSA: 20 mM HEPES pH 7.5, 4 mM DTT, 1 mM metal chloride, 30 C 30 min, 100 nM DNA, 10 nM polymerase. The following applies: protein: recombinant; 63 bp duplex, 5' overhang 7 nt on the 70-mer template.

For data set [6] the target is unchanged. Kind of data set: EMSA; 1 mM Mg2+; ITC: 1x PBS pH 7.5, 0.01% BSA, 0.05% Tween-20, with no metal, 1 mM MgCl2 or 1 mM CaCl2, 25 C, 5 uM SS_01; EMSA: 20 mM HEPES pH 7.5, 4 mM DTT, 1 mM metal chloride, 30 C 30 min, 100 nM DNA, 10 nM polymerase. Particulars: protein: recombinant; hairpin, self-primed template. (A gel shift assay detects complexes by their altered migration in electrophoresis.)

Regarding TCCTAACGAGATTAGTTTTGCTGTT (ssDNA) [unmodified oligonucleotide (non-PS)], the binding result in data set [1] was “binds”.

B1: 63/70-mer primed template (dsDNA)
DNA 1: TACGCAGCGTACATGCTCGTGACTGGGATAACCGTGCCGTTTGCCGACTTTCGCAGCCGTCCA
DNA 2: AAACCCTTGGACGGCTGCGAAAGTCGGCAAACGGCACGGTTATCCCAGTCACGAGCATGTACGCTGCGTA
modifications: three consecutive phosphorothioates at 3' terminus of 63-mer
Regarding B1, the Kd was found to be 0.317 ± 0.0752 µM in data set [2], 0.239 ± 0.0682 µM in data set [3], 0.243 ± 0.0805 µM in data set [4] and 0.129 ± 0.00946 µM in data set [5].

B2: Seq99A hairpin primed template (structured_DNA)
DNA: TTTTTGCGCTCGAGATCTCCGTAAGGAGATCTCGAGCGCGGGACTACTACTGGGATCATCATAGCCACCTCAGCTGCACGTAAGTGCAGCTGAGGTGGC
On to B2, for which the binding result in data set [6] is “binds”.

As a reminder, the Kd is a measure of binding affinity in units of concentration.

The values are drawn from paper PMC12732654, “Thermodynamic Profiling Reveals DNA Polymerase Template Binding, Substrate Incorporation, and Exonuclease Function”.
